B1: Apt[C3-GFP] (structured_RNA)
RNA: GGGAGCCUGAUGGCAGGGCGAAUUGGGUGGGGAAAGUCCUUAAAAGAGGGCCACCACAGAAGCAAUGGGCUUCUGGACUCGGUCCCGCUCGGCUAGAAGAAUAUGACGGAUUGACCGUAUCAGGGUAGCCGAGC
B2: AptC3-2 (structured_RNA)
RNA: GGGAGAAUUCAACUGCCAUCUAGGCAAAUCCGCGAGCGCCGGUACCGGUGGCGCAUGCCCACACAGCACUAAACGAGUACUACAAGCUUCUGGACUCGGU

What was measured:
C3b = C3b (Homo sapiens, UniProt P01024;P01024 23-667;749-1663); experiment: filter binding
iC3b [1] = target: T1, iC3b (Homo sapiens, UniProt P01024;P01024;P01024 23-667;749-1303;1321-1663); experiment: filter binding
iC3b [2] = target: T1, iC3b; experiment: EMSA

T1 sequence (P01024 23-667, chain 1 of 3): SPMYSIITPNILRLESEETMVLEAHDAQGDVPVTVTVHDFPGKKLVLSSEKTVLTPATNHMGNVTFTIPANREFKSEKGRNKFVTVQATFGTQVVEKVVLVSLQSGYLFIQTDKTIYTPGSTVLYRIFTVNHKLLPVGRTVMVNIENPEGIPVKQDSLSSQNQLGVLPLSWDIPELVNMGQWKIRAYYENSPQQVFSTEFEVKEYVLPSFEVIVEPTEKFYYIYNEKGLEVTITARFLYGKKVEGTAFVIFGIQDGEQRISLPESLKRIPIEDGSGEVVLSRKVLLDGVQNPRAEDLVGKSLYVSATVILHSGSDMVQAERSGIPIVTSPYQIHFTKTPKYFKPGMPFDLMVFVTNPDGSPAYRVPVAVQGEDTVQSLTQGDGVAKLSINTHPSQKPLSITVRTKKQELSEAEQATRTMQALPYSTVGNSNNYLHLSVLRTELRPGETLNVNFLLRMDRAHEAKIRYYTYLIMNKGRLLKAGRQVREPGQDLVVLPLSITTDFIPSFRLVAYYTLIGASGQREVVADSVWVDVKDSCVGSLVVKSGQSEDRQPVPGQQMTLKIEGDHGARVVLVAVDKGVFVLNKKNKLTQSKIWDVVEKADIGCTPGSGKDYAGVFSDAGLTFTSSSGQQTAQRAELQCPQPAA
T1 sequence (P01024 749-1303, chain 2 of 3): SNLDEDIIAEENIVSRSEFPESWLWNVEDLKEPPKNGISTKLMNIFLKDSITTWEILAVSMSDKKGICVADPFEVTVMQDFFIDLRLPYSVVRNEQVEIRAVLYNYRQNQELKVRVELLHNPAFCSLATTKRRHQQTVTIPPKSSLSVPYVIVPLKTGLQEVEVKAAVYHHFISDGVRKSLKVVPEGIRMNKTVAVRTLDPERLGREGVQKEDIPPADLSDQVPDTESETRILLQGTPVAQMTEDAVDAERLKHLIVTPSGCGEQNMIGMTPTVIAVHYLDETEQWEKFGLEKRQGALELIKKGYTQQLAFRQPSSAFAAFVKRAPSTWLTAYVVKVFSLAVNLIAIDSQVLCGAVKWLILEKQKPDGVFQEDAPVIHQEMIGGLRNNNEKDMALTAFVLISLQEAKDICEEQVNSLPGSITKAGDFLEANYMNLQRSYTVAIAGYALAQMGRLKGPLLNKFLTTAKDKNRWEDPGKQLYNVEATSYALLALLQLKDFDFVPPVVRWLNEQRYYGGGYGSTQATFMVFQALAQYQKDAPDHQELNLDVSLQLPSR
T1 sequence (P01024 1321-1663, chain 3 of 3): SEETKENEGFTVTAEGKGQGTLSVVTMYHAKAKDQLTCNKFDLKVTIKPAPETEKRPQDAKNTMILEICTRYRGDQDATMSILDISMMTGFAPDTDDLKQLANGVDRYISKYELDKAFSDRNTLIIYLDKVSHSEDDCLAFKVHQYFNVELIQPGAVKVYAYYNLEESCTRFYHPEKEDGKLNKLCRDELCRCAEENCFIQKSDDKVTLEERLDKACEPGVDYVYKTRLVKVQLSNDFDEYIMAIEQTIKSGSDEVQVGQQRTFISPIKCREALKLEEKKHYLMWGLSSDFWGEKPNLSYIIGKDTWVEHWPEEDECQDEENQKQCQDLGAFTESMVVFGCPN
Sequence of C3b (P01024 23-667, chain 1 of 2): as the sequence (P01024 23-667, chain 1 of 3) above
Sequence of C3b (P01024 749-1663, chain 2 of 2): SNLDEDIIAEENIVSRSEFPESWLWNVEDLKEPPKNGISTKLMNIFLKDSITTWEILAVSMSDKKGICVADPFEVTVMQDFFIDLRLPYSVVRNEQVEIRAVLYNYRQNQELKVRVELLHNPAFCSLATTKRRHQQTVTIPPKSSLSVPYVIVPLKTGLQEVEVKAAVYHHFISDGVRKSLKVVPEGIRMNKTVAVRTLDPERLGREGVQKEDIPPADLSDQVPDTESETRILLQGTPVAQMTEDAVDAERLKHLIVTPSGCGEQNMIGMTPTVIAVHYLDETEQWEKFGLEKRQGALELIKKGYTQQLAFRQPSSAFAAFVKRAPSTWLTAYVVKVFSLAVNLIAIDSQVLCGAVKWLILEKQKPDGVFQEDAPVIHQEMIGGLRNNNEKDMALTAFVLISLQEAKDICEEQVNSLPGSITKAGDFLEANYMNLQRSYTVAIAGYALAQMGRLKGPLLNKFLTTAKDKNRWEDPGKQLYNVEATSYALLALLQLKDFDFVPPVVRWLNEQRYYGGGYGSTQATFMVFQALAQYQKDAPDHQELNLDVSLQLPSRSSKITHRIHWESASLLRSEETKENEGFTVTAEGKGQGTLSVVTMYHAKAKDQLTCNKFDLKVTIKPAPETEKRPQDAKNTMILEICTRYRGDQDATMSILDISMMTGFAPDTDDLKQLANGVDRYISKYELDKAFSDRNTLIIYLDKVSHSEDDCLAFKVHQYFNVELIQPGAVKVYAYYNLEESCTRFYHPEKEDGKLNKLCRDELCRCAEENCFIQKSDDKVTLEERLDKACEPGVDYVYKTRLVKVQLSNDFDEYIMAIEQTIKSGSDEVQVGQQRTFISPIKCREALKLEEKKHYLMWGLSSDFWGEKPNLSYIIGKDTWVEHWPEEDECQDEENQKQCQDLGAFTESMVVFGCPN

Binder	binding result (C3b)	binding result (iC3b [1])	binding result (iC3b [2])
B1	binds	binds	–
B2	–	–	no binding

Source: PMC2853121
